We go through 6 substances from the supplement of paper PMC5998384.

For data set [1], the system named is HeLa Kyoto. The data set is described as follows: solubility in G1/S (NP-40 vs SDS abundance) (log2 ratio); higher = more soluble. The settings on record: cell cycle stage: G1/S.
Data set [2] concerns HeLa Kyoto. The data set is described as follows: melting temperature (median over replicates), in situ; higher = more thermally stable.
For data set [3], the system named is HeLa Kyoto. As to the kind of experiment: solubility change mitosis vs G1/S (difference of NP-40 vs SDS log2 ratios) (log2 ratio difference); higher = more soluble in mitosis.
For data set [4], the system named is HeLa Kyoto. The data set is described as follows: thermal stability score vs G1/S (z-score of summed log2 fold changes over temperatures); higher = more thermally stable than in G1/S.
[5] abbreviates: cell cycle stage: early G1 (4.5 h after nocodazole release).
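For melting temperature (median over replicates), in situ in this document: HeLa Kyoto cells synchronized by double thymidine or nocodazole block, proteins quantified by TMT10plex mass spectrometry, three independent biological replicates.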
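For solubility change mitosis vs G1/S (difference of NP-40 vs SDS log2 ratios) in this document: synchronized HeLa Kyoto cells (double thymidine block for G1/S, nocodazole release for mitosis), protein amounts in NP-40 versus SDS lysates quantified by mass spectrometry, three biological replicates.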
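For solubility in G1/S (NP-40 vs SDS abundance) in this document: HeLa Kyoto cells arrested at G1/S by double thymidine block, proteins quantified by TMT10plex mass spectrometry in mild NP-40 versus SDS extracts, three biological replicates.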
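For thermal stability score vs G1/S (z-score of summed log2 fold changes over temperatures) in this document: synchronized HeLa Kyoto cells, proteins quantified by TMT10plex mass spectrometry, three biological replicates, mitosis taken 0.5 h after nocodazole release, G1/S directly after double thymidine block.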

Turning to “MAATLLAARGAGPAPAWGPEAFTPDWESREVSTGTTIMAVQFDGGVVLGADSRTTTGSYIANRVTDKLTPIHDRIFCCRSGSAADTQAVADAVTYQLGFHSIELNEPPLVHTAASLFKEMCYRYREDLMAGIIIAGWDPQEGGQVYSVPMGGMMVRQSFAIGGSGSSYIYGYVDATYREGMTKEECLQFTANALALAMERDGSSGGVIRLAAIAESGVERQVLLGDQIPKFAVATLPPA [PSMB6]”, the “solubility in G1/S (log2)” value in the data set on HeLa Kyoto [1] is 0.119. Besides, the values for the melting temperature in the data set on HeLa Kyoto [2] (cell cycle stage: G1/S) and in the data set on HeLa Kyoto [2] (cell cycle stage: mitosis) were 59 °C and 59.6 °C, respectively. Besides, the “solubility change mitosis (log2)” value in the data set with HeLa Kyoto [3] is -0.103. Besides, the values for the thermal stability score in the data set with HeLa Kyoto [4] (setting [5]) and in the data set on HeLa Kyoto [4] (cell cycle stage: mitosis) were -1.97 and -2.64, respectively.

In the case of ALDH6A1, the “solubility in G1/S (log2)” value with HeLa Kyoto [1] worked out at 0.179. Further, the melting temperature with HeLa Kyoto [2] (cell cycle stage: G1/S) worked out at 49.3 °C; with HeLa Kyoto [2] (cell cycle stage: mitosis) it was 49.9 °C. Also, the “solubility change mitosis (log2)” value in the data set with HeLa Kyoto [3] is -0.072. Further, the results for the thermal stability score with HeLa Kyoto [4] (setting [5]) and in the data set with HeLa Kyoto [4] (cell cycle stage: mitosis) were 0.0292 and 0.822, respectively.

With “MSGAEEAGGGGPAAGPAGSVPAGVGVGVGAGPGAAAGQAAAAALGEAAGPGLPDEAGLAGARQLQLQEAAGDPDAPPKKRLRAAEAAEAAAAAAAAGSGKLEERLYSVLCCTVCLDLPKASVYQCTNGHLMCAGCFIHLLADARLKEEQATCPNCRCEISKSLCCRNLAVEKAVSELPSECGFCLRQFPRSLLERHQKEECQDRVTQCKYKRIGCPWHGPFHELTVHEAACAHPTKTGSELMEILDGMDQSHRKEMQLYNSIFSLLSFEKIGYTEVQFRPYRTDDFITRLYYETPRFTVLNQTWVLKARVNDSERNPNLSCKRTLSFQLLLKSKVTAPLECSFLLLKGPYDDVRISPVIYHFVFTNESNETDYVPLPIIDSVECNKLLAAKNINLRLFLFQIQK [CYHR1]”, the “solubility in G1/S (log2)” value in the data set on HeLa Kyoto [1] was 0.166. Further, the melting temperature in the data set with HeLa Kyoto [2] (cell cycle stage: G1/S) was found to be 54 °C; with HeLa Kyoto [2] (cell cycle stage: mitosis), 55 °C. Moreover, the “solubility change mitosis (log2)” value in the data set on HeLa Kyoto [3] is -0.0838. Besides, the thermal stability score was -1.75 with HeLa Kyoto [4] (setting [5]) and -2.18 in the data set with HeLa Kyoto [4] (cell cycle stage: mitosis).

With “MFGAAGRQPIGAPAAGNSWHFSRTMEELVHDLVSALEESSEQARGGFAETGDHSRSISCPLKRQARKRRGRKRRSYNVHHPWETGHCLSEGSDSSLEEPSKDYRENHNNNKKDHSDSDDQMLVAKRRPSSNLNNNVRGKRPLWHESDFAVDNVGNRTLRRRRKVKRMAVDLPQDISNKRTMTQPPEGCRDQDMDSDRAYQYQEFTKNKVKKRKLKIIRQGPKIQDEGVVLESEETNQTNKDKMECEEQKVSDELMSESDSSSLSSTDAGLFTNDEGRQGDDEQSDWFYEKESGGACGITGVVPWWEKEDPTELDKNVPDPVFESILTGSFPLMSHPSRRGFQARLSRLHGMSSKNIKKSGGTPTSMVPIPGPVGNKRMVHFSPDSHHHDHWFSPGARTEHDQHQLLRDNRAERGHKKNCSVRTASRQTSMHLGSLCTGDIKRRRKAAPLPGPTTAGFVGENAQPILENNIGNRMLQNMGWTPGSGLGRDGKGISEPIQAMQRPKGLGLGFPLPKSTSATTTPNAGKSA [GPATCH2]”, in the data set on HeLa Kyoto [1], the “solubility in G1/S (log2)” value came out at 0.0278. Besides, the melting temperature came to 51.7 °C in the data set on HeLa Kyoto [2] (cell cycle stage: G1/S) and 53 °C in the data set on HeLa Kyoto [2] (cell cycle stage: mitosis). Moreover, in the data set on HeLa Kyoto [3], the “solubility change mitosis (log2)” value is -0.0138. The thermal stability score with HeLa Kyoto [4] (setting [5]) was -0.791; in the data set on HeLa Kyoto [4] (cell cycle stage: mitosis) it was -1.01.

As to “MSSLSGKVQTVLGLVEPSKLGRTLTHEHLAMTFDCCYCPPPPCQEAISKEPIVMKNLYWIQKNAYSHKENLQLNQETEAIKEELLYFKANGGGALVENTTTGISRDTQTLKRLAEETGVHIISGAGFYVDATHSSETRAMSVEQLTDVLMNEILHGADGTSIKCGIIGEIGCSWPLTESERKVLQATAHAQAQLGCPVIIHPGRSSRAPFQIIRILQEAGADISKTVMSHLDRTILDKKELLEFAQLGCYLEYDLFGTELLHYQLGPDIDMPDDNKRIRRVRLLVEEGCEDRILVAHDIHTKTRLMKYGGHGYSHILTNVVPKMLLRGITENVLDKILIENPKQWLTFK [PTER]”, in the data set with HeLa Kyoto [1], the “solubility in G1/S (log2)” value turned out to be 0.0448. Moreover, the figures for the melting temperature in the data set on HeLa Kyoto [2] (cell cycle stage: G1/S) and in the data set with HeLa Kyoto [2] (cell cycle stage: mitosis) were 56.8 °C and 57 °C, respectively. In addition, in the data set on HeLa Kyoto [3], the “solubility change mitosis (log2)” value is -0.0354. For the same substance, the figures for the thermal stability score in the data set with HeLa Kyoto [4] (setting [5]) and in the data set on HeLa Kyoto [4] (cell cycle stage: mitosis) were -2.92 and -0.753, respectively.

As to “MTSMASLFSFTSPAVKRLLGWKQGDEEEKWAEKAVDALVKKLKKKKGAMEELEKALSSPGQPSKCVTIPRSLDGRLQVSHRKGLPHVIYCRVWRWPDLQSHHELKPLDICEFPFGSKQKEVCINPYHYKRVESPVLPPVLVPRHNEFNPQHSLLVQFRNLSHNEPHMPQNATFPDSFHQPNNTPFPLSPNSPYPPSPASSTYPNSPASSGPGSPFQLPADTPPPAYMPPDDQMGQDNSQPMDTSNNMIPQIMPSISSRDVQPVAYEEPKHWCSIVYYELNNRVGEAFHASSTSVLVDGFTDPSNNKSRFCLGLLSNVNRNSTIENTRRHIGKGVHLYYVGGEVYAECLSDSSIFVQSRNCNFHHGFHPTTVCKIPSSCSLKIFNNQEFAQLLAQSVNHGFEAVYELTKMCTIRMSFVKGWGAEYHRQDVTSTPCWIEIHLHGPLQWLDKVLTQMGSPLNPISSVS [SMAD5]”, the “solubility in G1/S (log2)” value in the data set with HeLa Kyoto [1] is -0.0752. Further, the melting temperature with HeLa Kyoto [2] (cell cycle stage: G1/S) turned out to be 50.3 °C; in the data set with HeLa Kyoto [2] (cell cycle stage: mitosis), 50 °C. For the same substance, the “solubility change mitosis (log2)” value with HeLa Kyoto [3] is -0.0922. The thermal stability score was 0.616 in the data set with HeLa Kyoto [4] (setting [5]) and 0.53 with HeLa Kyoto [4] (cell cycle stage: mitosis).
